# Source: US20070128627A1 (US Dept. of Health and Human Services, published 2007)
# B1: GAL/STAMP(623-834) (other)
# chain: MKLLSSIEQACDICRLKKLKCSKEKPKCAKCLKNNWECRYSPKTKRSPLTRAHLTEVESRLERLEQLFLLIFPREDLDMILKMDSLQDIKALLTGLFVQDNVNKDAVTDRLASVETDMPLTLRQHRISATSSSEESSNKGQRQLTVSENTPKENSMKVREWNNKGGHCCKLETQELEPKFNLMQILQDNGNLSKMQARIAFSAYLQHVQIRLMKDSGGQTFSASWAAKEDEQMELVVRFLKRASNNLQHSLRMVLPSRRLALLERRRILAHQLGDFIIVYNKETEQMAEKKSKKKVEEEEEDGVNMENFQEFIRQASEAELEEVLTFYTQKNKSASVFLGTHSKISKNNNNYSDSGAKG
# notes: domain: GAL-DBD; Expressed in CV-1 cells for the mammalian two-hybrid assay; also called Gal/6-6CL1
# Columns and labels:
# VP16/TIF2.4 = molecular target: T1, VP16/TIF2.4 (human, UniProt Q15596 624-1010); assay: mammalian two-hybrid in CV-1 cells, relative luciferase activity (FIG. 6A)
# T1 construct: Only the TIF2.4 fragment is present; The text gives no limits for it, so the whole TIF2 entry is named
# T1 sequence: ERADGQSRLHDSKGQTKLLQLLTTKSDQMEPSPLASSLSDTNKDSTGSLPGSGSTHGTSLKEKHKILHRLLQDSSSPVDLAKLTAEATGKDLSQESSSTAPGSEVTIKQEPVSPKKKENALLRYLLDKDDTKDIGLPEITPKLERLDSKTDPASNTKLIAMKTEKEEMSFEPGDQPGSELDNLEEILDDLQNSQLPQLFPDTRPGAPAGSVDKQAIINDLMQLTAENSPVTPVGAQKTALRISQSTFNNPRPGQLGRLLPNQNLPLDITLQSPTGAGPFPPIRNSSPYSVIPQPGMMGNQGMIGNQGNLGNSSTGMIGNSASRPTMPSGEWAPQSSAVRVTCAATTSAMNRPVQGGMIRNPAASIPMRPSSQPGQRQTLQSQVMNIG
# From the text: Triplicate samples of CV-1 cells were transiently transfected with VP16 or VP16/TIF2.4 in FIG. 6A experiments. […] After determining the relative luciferase activities as described in FIG. 2B and 2C, the average values±S.E.M. from 2-5 experiments were plotted.
# VP16/GR = molecular target: T2, VP16/GR (UniProt P06536 1-795); assay: mammalian two-hybrid ±1 µM Dex (FIG. 6B)
# T2 construct: Assayed with and without 1 µM Dex
# T2 sequence: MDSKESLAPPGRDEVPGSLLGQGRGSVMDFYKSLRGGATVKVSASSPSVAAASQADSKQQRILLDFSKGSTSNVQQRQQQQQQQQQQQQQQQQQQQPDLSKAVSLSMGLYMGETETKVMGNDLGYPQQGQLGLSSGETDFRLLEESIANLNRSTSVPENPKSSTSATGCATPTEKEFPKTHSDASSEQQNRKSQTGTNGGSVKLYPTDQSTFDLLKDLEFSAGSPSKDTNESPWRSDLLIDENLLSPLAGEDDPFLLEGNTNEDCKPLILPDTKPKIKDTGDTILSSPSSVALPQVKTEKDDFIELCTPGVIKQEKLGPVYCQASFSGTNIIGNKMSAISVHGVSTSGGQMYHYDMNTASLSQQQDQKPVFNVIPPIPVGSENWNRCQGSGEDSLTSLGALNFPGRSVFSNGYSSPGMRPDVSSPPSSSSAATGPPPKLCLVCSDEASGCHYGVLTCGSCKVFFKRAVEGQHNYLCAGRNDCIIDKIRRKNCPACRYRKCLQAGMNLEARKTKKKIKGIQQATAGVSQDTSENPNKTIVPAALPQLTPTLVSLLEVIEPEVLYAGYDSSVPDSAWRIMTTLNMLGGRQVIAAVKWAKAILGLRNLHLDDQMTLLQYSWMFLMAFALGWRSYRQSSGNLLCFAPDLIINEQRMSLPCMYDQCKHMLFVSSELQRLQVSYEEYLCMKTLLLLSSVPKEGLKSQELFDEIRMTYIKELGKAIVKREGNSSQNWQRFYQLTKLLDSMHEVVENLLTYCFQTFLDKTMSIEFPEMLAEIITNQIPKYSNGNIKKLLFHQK
binder,measurement,setting,value
B1,average fold increase above the VP16 control,VP16/TIF2.4,11 fold
same,binding result,VP16/GR,no binding
